This passage reports EC50 results from patent US20230248855A1 (ACTINIUM PHARMACEUTICALS, published 2023).

In general, EC50 refers to the concentration at which the effect is half-maximal.

The target of this assay is T1, human recombinant HER3 (human, UniProt P21860 20-643).
T1 construct: Plate-coated recombinant protein in the ELISA
The experiment in a line: ELISA, plate coated with human recombinant HER3, anti-human IgG F(ab')2-HRP detection. How it is done:
A secondary antibody (Goat Anti-human IgG F(ab′)20-HRP) was added and incubated for 30 min on ice followed by color development using […] for 10 min.
For orientation: ELISA stands for enzyme-linked immunosorbent assay.

T1 sequence (P21860 20-643 limits assumed): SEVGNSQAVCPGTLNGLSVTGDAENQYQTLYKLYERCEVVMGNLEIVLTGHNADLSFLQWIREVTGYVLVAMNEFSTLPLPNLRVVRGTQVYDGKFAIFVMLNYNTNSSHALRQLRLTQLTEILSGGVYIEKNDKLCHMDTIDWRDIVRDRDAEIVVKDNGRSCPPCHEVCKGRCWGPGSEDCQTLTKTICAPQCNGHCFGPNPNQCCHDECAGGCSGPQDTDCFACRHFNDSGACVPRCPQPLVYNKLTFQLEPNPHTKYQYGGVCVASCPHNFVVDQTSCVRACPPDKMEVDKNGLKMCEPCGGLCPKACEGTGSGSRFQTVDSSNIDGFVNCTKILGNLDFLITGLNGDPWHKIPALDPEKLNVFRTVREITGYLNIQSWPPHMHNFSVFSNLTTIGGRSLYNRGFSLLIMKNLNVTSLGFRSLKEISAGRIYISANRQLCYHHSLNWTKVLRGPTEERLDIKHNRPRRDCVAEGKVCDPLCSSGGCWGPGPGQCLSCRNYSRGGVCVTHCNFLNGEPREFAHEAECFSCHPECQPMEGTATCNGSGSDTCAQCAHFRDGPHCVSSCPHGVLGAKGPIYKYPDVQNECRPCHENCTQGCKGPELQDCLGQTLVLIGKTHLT

B1: 225Ac-HER3-ARC (Ac225 labeled DOTA-conjugated anti-HER3 monoclonal antibody) (antibody, human IgG1, kappa, V domains shown)
VH: QVQLVESGGGLVKPGGSLRLSCAASGFTFSDYAMSWIRQAPGKGLEWVSTISDGGTYTYYPDSVKGRFTISRDNAKNSLYLQMNSLRAEDTAVYYCAREWGDYDGFDYWGQGTLVTVSS
VL: DIQMTQSPSSLSASVGDRVTITCRASQEISGYLSWYQQKPGKAPKRLIYAASTLDSGVPSRFSGSGSGTEFTLTISSLQPEDFATYYCLQYDSYPYTFGQGTKLEIKR
modifications: DOTA chelator conjugated using p-SCN-Bn-DOTA and chelating Actinium-225; sites and chain not stated
On to B1, for which the concentration giving a half-maximal response (EC50) was found to be 1.7 ng/mL.

B2: anti-HER3 IgG monoclonal antibody consisting of heavy chain SEQ ID NO:77 and light chain SEQ ID NO:78 (unmodified) (antibody, V domains shown)
VH: B1 VH
VL: B1 VL
notes: IgG, detected with an anti-human IgG secondary antibody; also called unmodified anti-HER3 antibody; unmodified anti-HER3 mAb
With B2, the concentration for a half-maximal effect (EC50) turned out to be 2.2 ng/mL.
